The numbers were not newly measured in patent US20250222125A1, “Anti-FGFR2b Antibodies, Conjugates and Methods of Use” (BeiGene, Ltd., priority 2024, published 2025), which cites them from elsewhere.

The conditions of this data set: clinical trial, terminated early; cited from earlier work.

B1: Aprutumab ixadotin: FGFR2 antibody conjugated to auristatin (conjugate, chains of the INN, looked up)
VH: EVQLLESGGGLVQPGGSLRLSCAASGFTFSSYAMSWVRQAPGKGLEWVSAISGSGTSTYYADSVKGRFTISRDNSKNTLYLQMNSLRAEDTAVYYCARVRYNWNHGDWFDPWGQGTLVTVSS
VL: QSVLTQPPSASGTPGQRVTISCSGSSSNIGNNYVSWYQQLPGTAPKLLIYENYNRPAGVPDRFSGSKSGTSASLAISGLRSEDEADYYCSSWDDSLNYWVFGGGTKLTVL
modifications: auristatin payload conjugate
notes: FGFR2 antibody conjugated to auristatin
For B1, the “tolerability in clinical testing” value is “poorly tolerated”.
